The chains are these.
B1: HDV Ribozyme (parent)
chain: GGCCGGCAUGGUCCCAGCCUCCUCGCUGGCGCCGGCUGGGCAACAUUCCGAGGGGACCGUCCCCUCGGUAAUGGCGAAUGGGACCCA

The series covers variants of B1. Description: self-cleavage, relative activity (ratio to wild type); higher = more cleavage; co-transcriptional.
For the variant C24U G54A, the self-cleavage was 0.779. Then U46G U60G, with 0.415; and A45C C86A, with 0.95; and C41U G53C, with 1.05. Then C19U C26G, with 0.356.

Consider C14U U20A, for which the self-cleavage was determined as 0.145. Then U9A C48A, with 1.01; and G55U G73U, with 0.295; and G5U G74U, with 0. Next, G10A U12G: 0. Regarding G2C, the self-cleavage turned out to be 0.0584.

For G2C A78U, the self-cleavage came out at 0.132. Then C19G G40A, with 0.0573; and A45C G59C, with 0.696.

Take C24A C44G: the self-cleavage stood at 0.256. Consider C32G G38C, for which the self-cleavage was 0.0462. In the case of C33G G39U, the self-cleavage came to 0.0692. Next, U46G G54A: 0.656. Take U20G C85A: the self-cleavage was found to be 0.277. Next, C21G C22G: 0; U69G U72G: 0.997.

For C4G G34C, the self-cleavage amounted to 0.782. Then A16G G82U, with 0.237; and C41G C64U, with 0.853.

For U12C C32U, the self-cleavage was found to be 0.135. Next, C19U U27G: 0.237; C30U G55U: 0.789; C32G C48U: 0.0449. Next, G34C G68A: 0.0692; G59A G81U: 0.249; C26A U69G: 1.15. For the variant A8G C75U, the self-cleavage was 0.133. Then G38U G55A, with 0.137; and A42C C62G, with 0.0898; and G53C G55U, with 0.987. Next, G31A A71G: 0.432. Then C26G C58G, with 0.906. On to G5U A42U, for which the self-cleavage was 0.208.

For A8C G55U, the self-cleavage turned out to be 0.831. Next, G35A C84U: 0.464. For the variant G17A G81U, the self-cleavage was 0.182. Then U20C G39U, with 0.0386; and C61A C64G, with 0.791. Then C19A G67C, with 0.0615; and U9A A42G, with 0.361; and G5A C32G, with 0.248. Then G17U C21U, with 0.13. Take U37A G81C: the self-cleavage amounted to 0.227. On to G29A A83U, for which the self-cleavage is 0.208.

C4G U23A: the self-cleavage is 0.47.

In the case of G2C G68U, the self-cleavage turned out to be 0.0449. Next, G28U G50U: 0.163; C3A C36U: 0.0915.

For the variant U20A C66G, the self-cleavage amounted to 0.107.

Take A16G G76A: the self-cleavage was 1.07. As for C58U A70G, the self-cleavage stood at 1.01. Then C32G A71G, with 0.0415.

On to C41G C85A, for which the self-cleavage came out at 0.617. Next, G35C U37G: 0.0504; C58U G73A: 0.7; C14U C22A: 0.339. As for U60C C64G, the self-cleavage amounted to 0.776. Next, C14G U47C: 0.604; G29A U65A: 0.0627. Then U9A G53U, with 1.28; and C14G G39C, with 0.217. Then C19U U46A, with 0.0875; and G68U A87U, with 1; and U27G G39A, with 0.196. Take A8U C26A: the self-cleavage came out at 0.997. Regarding C19A U20C, the self-cleavage was determined as 0. Next, C4U U72C: 0.554; G1A C26G: 0; G11U C36G: 0.0615. Then A45C U69C, with 0.623; and C3U C15U, with 0.562. In the case of G54C A70C, the self-cleavage was determined as 0.755. Then U20A U69C, with 0. Then C3G A77G, with 0.237; and A8U C86A, with 0.997; and C13G C75A, with 0.

In the case of U9C U65A, the self-cleavage came to 1.25.

In the case of G52U G55A, the self-cleavage is 0.731. G5A C13G: the self-cleavage is 0. Next, G2A G67A: 0.11; G29U C49G: 0.133. Then C64A A77C, with 0.344; and C32U G35A, with 0.326. With G55A G80A, the self-cleavage is 0.369. Next, C41A A51C: 0.875; A51G C86A: 1.16; G2A G55C: 0.194. For C49U A70G, the self-cleavage turned out to be 0.748. Then C32U G81A, with 0.158; and A16C G25A, with 0.0405. Next, G34U U65C: 0.197. For C3G G35U, the self-cleavage is 1.33. Then C13G C48A, with 0.26; and G55U G74A, with 0.668.

Consider G17C C86U, for which the self-cleavage stood at 0.237. Next, G10U A51U: 0.767; U27G G68A: 0.858.

In the case of C7G U37A, the self-cleavage amounted to 0.147. Then C22A U27G, with 0.151; and C21A A51U, with 0.0369; and G1U G76C, with 0.277. Then G39U C61G, with 0.464; and A16G A56C, with 0.862.

Take G52U G80U: the self-cleavage is 0.312. Then C30G A56G, with 0.0941; and G39C C63U, with 0.369. Then C22G G81C, with 0. Next, G35U A87U: 0.451; G35C G73U: 0.181. In the case of G1A G6C, the self-cleavage worked out at 0.151. As to C22G C84G, the self-cleavage came out at 0.0923. For the variant G54C G73A, the self-cleavage stood at 0.565. For the variant G34C A42G, the self-cleavage turned out to be 0.0554. Next, G59U G74C: 0.271; C22G A70G: 0.185. Next, G10A G55A: 0.831; C30G A71U: 0.0875; G53U C85U: 0.969.

Turning to U37G G82U, the self-cleavage was 0.0773. Then U37C G59U, with 1.25; and G50A G53A, with 0.803.

As for U12A A87G, the self-cleavage is 0.115. G80C A87G: the self-cleavage worked out at 0.211.

On to A45U U79A, for which the self-cleavage came out at 0.192. Next, C66A G67C: 0.845; C4G G28A: 0; C32A C58G: 0. Then C32A C58U, with 0.208; and G34C A43C, with 0.364; and C84G, with 0.688. Then C22G C32A, with 0. In the case of G39A A70U, the self-cleavage is 0.496.

For the variant C57G U72A, the self-cleavage is 0.635. Then C32U G40U, with 0.758; and G55A C66A, with 1.07. Next, U12G C61A: 0.798; C21A C48U: 0.0639; A8U A56C: 1.25. Then C48G A51C, with 0.88; and G25C A42G, with 0. Consider G73C A83C, for which the self-cleavage came to 0.264. Next, G5U G35A: 0.156; U12C C66A: 0.332. G2A G6C: the self-cleavage amounted to 0.

For C13A A78C, the self-cleavage amounted to 0.0297. Next, C13A G73A: 0.0863; C63A U65A: 0.427.

On to G55A A78U, for which the self-cleavage came out at 0.201.

On to G54A G59U, for which the self-cleavage turned out to be 1.06. Next, A71G C85U: 0.962. Then C57A G73U, with 0.322; and C21A C49G, with 0.102. For G2A G39C, the self-cleavage was determined as 0.0712.

On to C33G A71G, for which the self-cleavage was found to be 0.178. In the case of A8G A43G, the self-cleavage came out at 0.415. On to G11U, for which the self-cleavage was 0.366. Then A16G A51G, with 0.703; and U9G G39U, with 0.807; and C36A U60C, with 0.166. Then G28C G74C, with 0.151; and C26U G76U, with 0.963; and U23G G40A, with 0.76.

For the origin of these results see the RNAGym collection of RNA variant scans (doi:10.7554/elife.80360).
